The source of these data is publication PMC11076521, “Structural basis for the intracellular regulation of ferritin degradation” (Nature Communications, 2024).

Assay [1] deals with T1, FTL S19R, Q26Y, A86D, K106N (L2H mutant, recombinant) (UniProt P02792 1-175, S19R | Q26Y | A86D | K106N).
T1 construct: ferritin light chain (FTL) with four residues of FTH1 brought into the cleft; mutant ordered from Twist Bioscience in pET-29b(+); also called FTL mutant L2H; source: E. coli BL21 (DE3), purified (heat treatment, HiTrap Q HP, ammonium sulfate)
As to the kind of experiment: ITC; 16 injections of 3 uL NCOA4 into the cell containing ferritin; 25.00 C; 100 mM MOPS, 100 mM NaCl, pH 7.4; one class of independent binding sites. The conditions noted are these: both partners purified. A general note: ITC needs no label: the signal is the heat of the interaction.

For assay [2], the target named is T2, human FTH1 wild type (recombinant ferritin nanocage) (human, UniProt P02794 1-183).
T2 construct: ferritin heavy chain (FTH1), human; plasmid from Addgene #122652; Homopolymer cage; also called FTH1-WT; WT-FTH1; source: E. coli BL21 (DE3), purified (heat treatment, HiTrap Q HP, ammonium sulfate); copies: 24
Described as above. The note with it: both partners purified.

Another assay has as its target T3, FTH1-S114D (recombinant) (human, UniProt P02794 1-183, S114D).
T3 construct: ferritin heavy chain (FTH1), human, phosphomimetic mutant ordered from Twist Bioscience in pET-29b(+); source: E. coli BL21 (DE3), purified (heat treatment, HiTrap Q HP, ammonium sulfate)
The description is as above. The conditions noted are these: both partners purified.

Assay [3] concerns the target T4, N-terminally MYC-tagged FTH1-A19Y (human, UniProt P02794 1-183, A19Y).
T4 construct: ferritin heavy chain (FTH1), NM_002032.3, mutant synthesized by Twist Bioscience in pTwist EF1 Alpha; source: HEK293T-FTH1 KO, transiently transfected, in lysate; not shown: MYC, N-terminal, kept
As to the kind of experiment: co-IP; HEK293T-FTH1 KO cells, transient expression; anti-MYC agarose IP of MYC-FTH1, immunoblot; 50 mM Tris-HCl pH 7.5, 150 mM NaCl, 0.5% Nonidet P40, 1 mM DTT; quantified relative to FTH1-WT, normalized to immunoprecipitated FTH1. The note with it: partners not purified. On the technique in general: In western blotting, separated proteins are transferred to a membrane and probed.

Assay [4] concerns the target T5, N-terminally MYC-tagged FTH1-R23L (human, UniProt P02794 1-183, R23L).
T5 construct: ferritin heavy chain (FTH1), NM_002032.3, mutant synthesized by Twist Bioscience in pTwist EF1 Alpha; source: HEK293T-FTH1 KO, transiently transfected, in lysate; not shown: MYC, N-terminal, kept
Described as above. The note with it: partners not purified.

Assay [5] concerns the target T6, N-terminally MYC-tagged FTH1-S114D (human, UniProt P02794 1-183, S114D).
T6 construct: ferritin heavy chain (FTH1), NM_002032.3, phosphomimetic mutant synthesized by Twist Bioscience in pTwist EF1 Alpha; source: HEK293T-FTH1 KO, transiently transfected, in lysate; not shown: MYC, N-terminal, kept
Described as above. The conditions noted are these: partners not purified.

The target in assay [6] is T7, N-terminally MYC-tagged FTH1-N22A (human, UniProt P02794 1-183, N22A).
T7 construct: ferritin heavy chain (FTH1), NM_002032.3, mutant synthesized by Twist Bioscience in pTwist EF1 Alpha; source: HEK293T-FTH1 KO, transiently transfected, in lysate; not shown: MYC, N-terminal, kept
The assay is described as above. The note with it: partners not purified.

Assay [7] concerns the target T8, N-terminally MYC-tagged FTH1-R23I (human, UniProt P02794 1-183, R23I).
T8 construct: ferritin heavy chain (FTH1), NM_002032.3, mutant synthesized by Twist Bioscience in pTwist EF1 Alpha; source: HEK293T-FTH1 KO, transiently transfected, in lysate; not shown: MYC, N-terminal, kept
The assay is described as above. The conditions noted are these: partners not purified.

Assay [8] addresses T9, N-terminally MYC-tagged FTH1-S114E (human, UniProt P02794 1-183, S114E).
T9 construct: ferritin heavy chain (FTH1), NM_002032.3, phosphomimetic mutant synthesized by Twist Bioscience in pTwist EF1 Alpha; source: HEK293T-FTH1 KO, transiently transfected, in lysate; not shown: MYC, N-terminal, kept
The assay is described as above. The note with it: partners not purified.

Assay [9] deals with T10, N-terminally MYC-tagged FTH1-R23A (human, UniProt P02794 1-183, R23A).
T10 construct: ferritin heavy chain (FTH1), NM_002032.3, mutant synthesized by Twist Bioscience in pTwist EF1 Alpha; source: HEK293T-FTH1 KO, transiently transfected, in lysate; not shown: MYC, N-terminal, kept
Described as above. The conditions noted are these: partners not purified.

T3 sequence (P02794 whole entry S114D): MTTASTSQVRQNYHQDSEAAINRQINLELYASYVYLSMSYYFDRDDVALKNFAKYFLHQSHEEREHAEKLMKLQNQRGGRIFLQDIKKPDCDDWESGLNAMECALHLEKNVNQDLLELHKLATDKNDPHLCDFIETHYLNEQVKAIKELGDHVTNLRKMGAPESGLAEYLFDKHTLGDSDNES
T2 sequence (P02794 whole entry): as the sequence (P02794 whole entry S114D) above, with D114S counted along it
T1 sequence (P02792 whole entry S19R/Q26Y/A86D/K106N): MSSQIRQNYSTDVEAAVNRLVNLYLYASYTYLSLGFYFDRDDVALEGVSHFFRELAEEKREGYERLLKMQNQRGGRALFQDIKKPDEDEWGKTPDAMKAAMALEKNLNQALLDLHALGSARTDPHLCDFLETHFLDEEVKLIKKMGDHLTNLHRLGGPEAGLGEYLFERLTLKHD
T7 sequence (P02794 whole entry N22A): as the sequence (P02794 whole entry S114D) above, with N22A, D114S counted along it
T10 sequence (P02794 whole entry R23A): as the sequence (P02794 whole entry S114D) above, with R23A, D114S counted along it
T6 sequence (P02794 whole entry S114D): as the sequence (P02794 whole entry S114D) above
T4 sequence (P02794 whole entry A19Y): as the sequence (P02794 whole entry S114D) above, with A19Y, D114S counted along it
T5 sequence (P02794 whole entry R23L): as the sequence (P02794 whole entry S114D) above, with R23L, D114S counted along it
T8 sequence (P02794 whole entry R23I): as the sequence (P02794 whole entry S114D) above, with R23I, D114S counted along it
T9 sequence (P02794 whole entry S114E): as the sequence (P02794 whole entry S114D) above, with D114E counted along it

B1: NCOA4 ferritin-binding fragment (amino acids 383-522), His-tagged (domain or fragment, UniProt Q13772 383-522, looked up)
chain: SMVTEDWLVQNHQDPCKVEEVCRANEPCTSFAECVCDENCEKEALYKWLLKKEGKDKNGMPVEPKPEPEKHKDSLNMWLCPRKEVIEQTKAPKAMTPSRIADSFQVIKNSPLSEWLIRPPYKEGSPKEVPGTEDRAGKQK
notes: No tag cleavage is described; also called NCOA4^FB; NCOA4-383-522; source: E. coli T7 Lys, purified (HisTrap, PD10 desalting)
For the molecule B1, the values for the equilibrium dissociation constant (Kd) (in assay [1]; in [2]; in the assay with FTH1-S114D (recombinant)) were 5.6 µM, 2.4 µM and 3.5 µM, respectively. In addition, the dH in [1] is -5.26 kcal/mol; in assay [2], -5.5 kcal/mol; with FTH1-S114D (recombinant), -4.66 kcal/mol. Further, the “stoichiometry N” value in assay [1] was 1.9; in assay [2], 2.5; with FTH1-S114D (recombinant), 3.

B2: C-terminally HA-FLAG-tagged NCOA4 (natural protein, UniProt Q13772 1-614, looked up)
chain: MNTFQDQSGSSSNREPLLRCSDARRDLELAIGGVLRAEQQIKDNLREVKAQIHSCISRHLECLRSREVWLYEQVDLIYQLKEETLQQQAQQLYSLLGQFNCLTHQLECTQNKDLANQVSVCLERLGSLTLKPEDSTVLLFEADTITLRQTITTFGSLKTIQIPEHLMAHASSANIGPFLEKRGCISMPEQKSASGIVAVPFSEWLLGSKPASGYQAPYIPSTDPQDWLTQKQTLENSQTSSRACNFFNNVGGNLKGLENWLLKSEKSSYQKCNSHSTTSSFSIEMEKVGDQELPDQDEMDLSDWLVTPQESHKLRKPENGSRETSEKFKLLFQSYNVNDWLVKTDSCTNCQGNQPKGVEIENLGNLKCLNDHLEAKKPLSTPSMVTEDWLVQNHQDPCKVEEVCRANEPCTSFAECVCDENCEKEALYKWLLKKEGKDKNGMPVEPKPEPEKHKDSLNMWLCPRKEVIEQTKAPKAMTPSRIADSFQVIKNSPLSEWLIRPPYKEGSPKEVPGTEDRAGKQKFKSPMNTSWCSFNTADWVLPGKKMGNLSQLSSGEDKWLLRKKAQEVLLNSPLQEEHNFPPDHYGLPAVCDLFACMQLKVDKEKWLYRTPLQM
notes: the discussion calls the NCOA4 of the cellular studies full-length; also called full-length NCOA4; source: HEK293T-FTH1 KO, transiently transfected, in lysate; HeLa-FTH1 KO, in lysate; not shown: HA, C-terminal, kept; FLAG, C-terminal, kept
With B2, the “relative interaction by immunoprecipitation (% of FTH1-WT)” value was determined as 8.86% in [3]; 86% in assay [4]; 111% in [5]; 3.72% in assay [6]; 13% in assay [7]; 113% in assay [8]. The “relative interaction by immunoprecipitation (% of FTH1-WT)” value in assay [9] stood at 5.35%.

For orientation: Kd means the concentration at which binding is half-saturated. A word on the stoichiometry N: it is the number of molecules, sites or subunits per partner or assembly.
